# In patent US20090118183A1 (AFFYMAX, published 2009):
# Read-outs that look alike come from different tables or passages of the source. Bridge positions count the residues as written; N and C are the ends. Square brackets hold non-standard residues; d marks the D form. Ends that are not written are not given here. 1Nal = N[C@@H](Cc1cccc2ccccc12)C(=O)O; Sar = CNCC(=O)O
# B1: Peptide II (SEQ ID NO: 3) (peptide)
# peptide: Ac-GGLYACHMGPIT[1Nal]VCQPLR[Sar]
# modifications: disulfide 6-15; also: homodimer: C-termini joined to alpha- and epsilon-amino groups of a lysine linker carrying spacer and PEG, not shown
# B2: Peptide III (SEQ ID NO: 3) (peptide)
# peptide: Ac-GGLYACHMGPIT[1Nal]VCQPLR[Sar]
# modifications: disulfide 6-15; also: homodimer: C-termini joined to alpha- and epsilon-amino groups of a lysine linker carrying spacer and PEG, not shown
# B3: Peptide I (SEQ ID NO: 2) (peptide)
# peptide: Ac-GGLYACHMGPIT[1Nal]VCQPLR[Sar]K
# modifications: disulfide 6-15; not fully specified (residue 21); printed as (AcG)GLYACHMGPIT(1-nal)VCQPLR(MeG)K; also: homodimer, Lys21 epsilon-N joined to branched tertiary amide linker carrying PEG
# notes: also called Peptide 1
# How the values were obtained:
# [1] = biological target: recombinant EPO-R (produced in Chinese Hamster Ovary cells as a fusion protein to a portion of the human … (human, UniProt P05187 489-506)); assay: competitive binding; column headed only 'IC50 (pM)'; taken as the AQ bead proximity assay against the biotinylated peptide tracer (SEQ ID NO: 4) per paragraph 299
# [2] = biological target: T1, chimeric receptor comprising the extra-cellular portion of the human EPO receptor to the intra-cellular … (human, UniProt P19235 25-250; Q99062 651-836, limits assumed); assay: cell-based or functional assay
# T1 sequence (looked up): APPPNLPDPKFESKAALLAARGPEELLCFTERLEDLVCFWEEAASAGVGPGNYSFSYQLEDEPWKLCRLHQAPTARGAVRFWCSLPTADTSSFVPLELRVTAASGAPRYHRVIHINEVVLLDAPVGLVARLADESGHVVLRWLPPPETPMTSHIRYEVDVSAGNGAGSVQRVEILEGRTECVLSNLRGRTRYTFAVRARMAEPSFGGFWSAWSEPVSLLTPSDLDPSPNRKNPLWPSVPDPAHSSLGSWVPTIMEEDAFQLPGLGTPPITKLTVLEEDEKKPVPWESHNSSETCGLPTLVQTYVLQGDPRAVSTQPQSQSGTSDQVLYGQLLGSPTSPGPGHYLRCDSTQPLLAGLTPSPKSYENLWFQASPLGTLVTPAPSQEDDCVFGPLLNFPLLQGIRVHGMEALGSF
# [3] = biological target: T2, human EPO-R (human, UniProt P19235 25-508); assay: cell-based or functional assay
# T2 sequence (looked up): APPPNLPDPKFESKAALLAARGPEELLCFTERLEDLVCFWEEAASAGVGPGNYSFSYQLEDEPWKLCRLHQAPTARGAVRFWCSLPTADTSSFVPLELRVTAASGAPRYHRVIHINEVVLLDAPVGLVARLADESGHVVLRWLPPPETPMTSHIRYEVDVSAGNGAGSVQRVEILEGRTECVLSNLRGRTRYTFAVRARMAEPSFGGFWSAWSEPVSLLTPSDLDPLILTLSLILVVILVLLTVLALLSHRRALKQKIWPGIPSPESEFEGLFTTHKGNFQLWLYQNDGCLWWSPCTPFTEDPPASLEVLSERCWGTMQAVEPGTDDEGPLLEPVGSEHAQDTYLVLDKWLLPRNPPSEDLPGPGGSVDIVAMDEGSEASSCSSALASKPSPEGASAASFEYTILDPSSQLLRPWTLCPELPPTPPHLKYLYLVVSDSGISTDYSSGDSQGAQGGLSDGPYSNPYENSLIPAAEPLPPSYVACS
# [4] = biological target: T1, chimeric receptor comprising the …; assay: cell-based or functional assay; remark: listed apart in the source
# [5] = biological target: T2, human EPO-R; assay: cell-based or functional assay; remark: listed apart in the source
# [6] = biological target: T3, Recombinant Human EPO R/Fc Chimera (human, UniProt P19235 25-250); assay: radioligand competition: displacement of 125I-EPO from recombinant human EPO R/Fc, Protein-G Sepharose pull-down
# T3 construct: extracellular domain; Bought reagent (R&D Systems, catalog 963-ER); also called recombinant EPOr extracellular domain fused to the Fc portion of human IgG1; recombinant erythropoietin receptor; not shown: Fc portion of human IgG1
# T3 sequence (looked up): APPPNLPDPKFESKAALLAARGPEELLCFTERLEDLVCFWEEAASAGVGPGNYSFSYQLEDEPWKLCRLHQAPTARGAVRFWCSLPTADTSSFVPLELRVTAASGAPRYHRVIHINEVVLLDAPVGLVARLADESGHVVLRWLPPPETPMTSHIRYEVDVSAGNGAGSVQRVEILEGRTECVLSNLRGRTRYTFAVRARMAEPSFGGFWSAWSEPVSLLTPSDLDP
binder,measurement,setting,value
B1,IC50,[1],110 pM
B2,Reporter EC50 (pM),[2],150 pM
same,Proliferation EC50,[3],72000 pM
B3,Reporter EC50 (pM),[4],195 pM
same,Proliferation EC50 (pM),[5],165 pM
same,IC50,[6],111 pM
